US20210300999A1 (VANDERBILT UNIVERSITY, published 2021)

B1: COV2-3025 (antibody, V domains shown)
VH: EVQLVQSGPEVKKPGTSVKVSCKASGFTFMSSAVQWVRQARGQRLEWIGWIVIGSGNTNYAQKFQERVTITRDMSTSTAYMELSSLRSEDTAVYYCAAPYCSSISCNDGFDIWGQGTMVTVSS
VL: EIVLTQSPGTLSLSPGERVTLSCRASQSVSSSYLAWYQQKPGQAPRLLIYGASSRATGIPDRFSGSGSGTDFTLTISRLEPEDFAVYYCQHYGSSRGWTFGQGTKVEIK
B2: COV2-2514 (antibody, V domains shown)
VH: EVQLVESGGGVVRPGGSLRLSCAASGFIFDDYDMTWVRQAPGKGLEWVSGINWNGGSTGYADSVKGRFTISRDNAKNSLYLQMNSLRAEDTALYHCAVIMSPIPRYSGYDWAGDAFDIWGQGTMVTVSS
VL: SSELTQDPAVSVALGQTVRITCQGDSLRSYYASWYQQKPGQVPILVIYDKNNRPSGIPDRFSGSSSGNTASLTITGAQAEDEADYYCNSRDSSGNAVVFGGGTKLTVL
B3: COV2-2094 (antibody, V domains shown)
VH: B2 VH
VL: B2 VL

Columns and labels:
[1] = biological target: SARS-CoV-2 Spike trimer (Table A) (SARS-CoV-2, UniProt P0DTC2 14-1208); assay: ELISA, purified IgG
[2] = biological target: T1, SARS-CoV-2 prefusion-stabilized trimeric spike ectodomain (S2Pecto) (SARS-CoV-2, UniProt P0DTC2 14-1213; P10104 458-484); assay: ELISA on coated antigen
[3] = biological target: T1, SARS-CoV-2 prefusion-stabilized …; assay: hACE2 blocking ELISA on coated S2Pecto; competitor hACE2

Row | Binder | ELISA OD 450 nm [1] | EC50 [2] | IC50 [3]
1 | B1 | 3.7 OD 450 nm | 1.1 ng/mL | 0.041 µg/mL
2 | B2 | 3.56 OD 450 nm |  | 
3 | B3 | 4.3 OD 450 nm | 1.8 ng/mL | 0.053 µg/mL
